Consider 22 molecules from patent US20110086806A1 (published 2011).

Positions count from the first letter of the chain named.

T1: recombinant human IL-23R/Fc chimera (R&D Systems) (human, UniProt Q5VWK5 24-355)
T1 construct: Bought; also called rhIL23RFc
T1 sequence (looked up): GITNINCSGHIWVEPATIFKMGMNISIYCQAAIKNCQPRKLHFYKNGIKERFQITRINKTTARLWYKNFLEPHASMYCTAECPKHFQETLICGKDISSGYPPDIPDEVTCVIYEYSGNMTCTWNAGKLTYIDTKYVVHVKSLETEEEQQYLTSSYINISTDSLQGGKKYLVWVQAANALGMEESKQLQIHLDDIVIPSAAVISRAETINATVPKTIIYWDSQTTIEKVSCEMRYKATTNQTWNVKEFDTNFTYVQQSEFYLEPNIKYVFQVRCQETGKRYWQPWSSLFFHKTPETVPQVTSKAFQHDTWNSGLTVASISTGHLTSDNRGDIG

B1: 101-80-5H3 ATRIMER complex (designed binder)
chain: EPPTQKPKKIVNAKKDVVNTKMFEELKSRLDTLAQEVALLKEQQALQTVCLKGTKVHMKCFLAFTQTKTFHEASEDCISRGGTLSTPQTGSENDALYEYLRQSVGNEAEIWLGLNGSALTNTWVDMTGARIAYKNWEPPAPYHPMAAGVFGENCAVLSGAANGKWFDKRCRDQLPYICQFGIV
B2: 101-51-1A8 ATRIMER complex (designed binder)
chain: EPPTQKPKKIVNAKKDVVNTKMFEELKSRLDTLAQEVALLKEQQALQTVCLKGTKVHMKCFLAFTQTKTFHEASEDCISRGGTLSTPQTGSENDALYEYLRQSVGNEAEIWLGLNGSALTNTWVDMTGARIAYKNWERTPPWQPEGGFGYFGENCAVLSGAANGKWFDKRCRDQLPYICQFGIV
modifications: Forms a homotrimer through the tetranectin coiled coil; one protomer is given.
notes: not shown: C-terminal tag: His/Myc (pANA4) or HA-StrepII (pANA10)
B3: 105-20-1B3 ATRIMER complex (designed binder)
chain: B2 chain with R138T, T139E, P140I, P141T, W142A, E145D
B4: 105-08-1A3 ATRIMER complex (designed binder)
chain: EPPTQKPKKIVNAKKDVVNTKMFEELKSRLDTLAQEVALLKEQQALQTVCLKGTKVHMKCFLAFTQTKTFHEASEDCISRGGTLSTPQTGSENDALYEYLRQSVGNEAEIWLGLNGSPRTDTWVDMTGARIAYKNWETEITAQPDGGWGVFGENCAVLSGAANGKWFDKRCRDQLPYICQFGIV
modifications: Homotrimer of three identical chains (ATRIMER complex); one chain is given.
notes: as for B2
B5: 101-54-4B10 ATRIMER complex (designed binder)
chain: B2 chain with T139P, P141L, W142Y, E145G
B6: 101-51-1A10 ATRIMER complex (designed binder)
chain: B2 chain with R138H, T139P, P140L, W142P, E145S
modifications: Forms a homotrimer through the tetranectin coiled coil; one protomer is given.
notes: as for B2
B7: 105-08-2F6 ATRIMER complex (designed binder)
chain: B4 chain with P118A, R119Y, D121N, W148F, V150Y
B8: 101-54-4A12 ATRIMER complex (designed binder)
chain: EPPTQKPKKIVNAKKDVVNTKMFEELKSRLDTLAQEVALLKEQQALQTVCLKGTKVHMKCFLAFTQTKTFHEASEDCISRGGTLSTPQTGSENDALYEYLRQSVGNEAEIWLGLNGSRRSGVWVDMTGARIAYKNWEPPGPAHPQGGFGVFGENCAVLSGAANGKWFDKRCRDQLPYICQFGIV
notes: also called 101-54-4Al2
B9: 101-54-4B3 ATRIMER complex (designed binder)
chain: B2 chain with R138L, T139P, W142G, Q143H, E145Q, Y150V
B10: 105-08-2G7 ATRIMER complex (designed binder)
chain: B4 chain with R119K, D121G, W148F, V150Y
B11: 105-08-1D3 ATRIMER complex (designed binder)
chain: B4 chain with P118K, R119V, D121E, W148F, V150Y
B12: 101-80-5E8 ATRIMER complex (designed binder)
chain: B2 chain with R138P, T139P, P140E, W142L, Q143H, E145M, Y150V
B13: 105-08-2G10 ATRIMER complex (designed binder)
chain: B4 chain with R119L, W148F, V150Y
B14: 105-20-2A3 ATRIMER complex (designed binder)
chain: B4 chain with R119I, D121N, W148F, V150Y
modifications: Homotrimer of three identical chains (ATRIMER complex); one chain is given.
notes: as for B2
B15: 105-20-1H1 ATRIMER complex (designed binder)
chain: B4 chain with R119L, D121N, V150Y
B16: 105-20-1H7 ATRIMER complex (designed binder)
chain: B4 chain with P118A, R119G, D121N, W148F, V150Y
B17: 105-20-2F12 ATRIMER complex (designed binder)
chain: B4 chain with P118K, R119L, W148F, V150Y
modifications: ATRIMER complex: homotrimer of three copies of this chain, joined by the tetranectin coiled coil
notes: not shown: C-terminal tag: Myc/His (pANA4) or HA-StrepII (pANA10)
B18: 101-113-6C102 ATRIMER complex (designed binder)
chain: B8 chain with R118N, R119V, S120T, G121Q, V122T, G140P, A142H
notes: not shown: C-terminal tag
B19: 105-08-1A4 ATRIMER complex (designed binder)
chain: B4 chain with P118A, R119V, D121N, W148F, V150Y
B20: 105-20-2G12 ATRIMER complex (designed binder)
chain: B4 chain with D121N, W148F, V150Y
B21: 101-51-1A9 ATRIMER complex (designed binder)
chain: B2 chain with R138P, T139A, P140R, P141Q, W142P, E145G
B22: 105-08-2C10 ATRIMER complex (designed binder)
chain: B4 chain with P118L, R119L, W148F

In one assay the target is T1, recombinant human IL-23R/Fc chimera …. Kind of assay: competition ELISA vs IL-23. The protocol:
Assays were performed generally as follows. Individual wells in Immulon HB2 plates were incubated overnight at 4° C. with 100 μL PBS containing 100 ng of an anti-human IgG Fc (R&D MAB 110 clone 97924). Plates were washed five times with PBS/0.05% Tween 20, and wells were incubated for 1.5 h at RT with 100 μL each of PBS containing 50 ng of recombinant human IL-23R/Fc. […] Competitor was included at a final concentration of 1 μg/mL. After incubation, plates were washed as described and wells were incubated for 40 min at RT with 100 μL each of PBS containing a 1:5000 dilution of streptavidin-HRP conjugate (Pierce catalog no. 21130). After washing, wells were incubated with 100 μL each of TMB (BioFX Lab catalog no. TMBH-1000-0) for up to 30 min at RT. Reactions were stopped with an equal volume of 0.2 M sulfuric acid.
(ELISA stands for enzyme-linked immunosorbent assay.)
Regarding B1, the “Ratio IC50 to 056-53.H4E IC50” value was found to be 11.3.

Turning to B2, the “Ratio IC50 to 056-53.H4E IC50” value was 3.7.

In the case of B3, the “Ratio IC50 to 056-53.H4E IC50” value was 1.2.

B4: the “Ratio IC50 to 056-53.H4E IC50” value came to 1.1.

Consider B5, for which the “Ratio IC50 to 056-53.H4E IC50” value amounted to 1.4.

With B6, the “Ratio IC50 to 056-53.H4E IC50” value was 8.7.

B7: the “Ratio IC50 to 056-53.H4E IC50” value is 2.4.

Consider B8, for which the “Ratio IC50 to 056-53.H4E IC50” value was determined as 1.1.

For B9, the “Ratio IC50 to 056-53.H4E IC50” value was determined as 1.

As for B10, the “Ratio IC50 to 056-53.H4E IC50” value turned out to be 2.5.

Consider B11, for which the “Ratio IC50 to 056-53.H4E IC50” value was found to be 0.4.

As for B12, the “Ratio IC50 to 056-53.H4E IC50” value amounted to 0.6.

In the case of B13, the “Ratio IC50 to 056-53.H4E IC50” value was determined as 1.8.

Turning to B14, the “Ratio IC50 to 056-53.H4E IC50” value is 1.2.

Regarding B15, the “Ratio IC50 to 056-53.H4E IC50” value was found to be 1.8.

In the case of B16, the “Ratio IC50 to 056-53.H4E IC50” value was determined as 2.1.

In the case of B17, the “Ratio IC50 to 056-53.H4E IC50” value was 2.8.

For the molecule B18, the “Ratio IC50 to 056-53.H4E IC50” value was 2.

B19: the “Ratio IC50 to 056-53.H4E IC50” value was found to be 1.6.

For B20, the “Ratio IC50 to 056-53.H4E IC50” value was 1.

Regarding B21, the “Ratio IC50 to 056-53.H4E IC50” value turned out to be 2.2.

Take B22: the “Ratio IC50 to 056-53.H4E IC50” value is 0.9.

The target is the same in the next assay. Kind of assay: SPR. The gist of the method: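 Recombinant human IL-23R/Fc captured on anti-human IgG Fc CM5 surface (<200 RU); ATRIMER complexes at 1-500 nM injected at 30 μl/min, 3 min association and 5 min dissociation. Kinetic constants fitted from double-referenced sensorgrams.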
On the technique in general: In SPR one partner is held on a chip, and binding of the other changes the refractive index at the surface.
Broadly, the Kd is a measure of binding affinity in units of concentration. For orientation: koff means the first-order rate constant of dissociation. A word on the kon: it is the second-order rate constant of association. Consider B1, for which the Ka was determined as 1.55e+08 M⁻¹, the Kd worked out at 6.46 nM, the koff was found to be 0.000327 s⁻¹ and the kon came to 50500 M⁻¹ s⁻¹.

As to B2, the Ka came out at 6.62e+08 M⁻¹, the Kd is 1.51 nM, the koff turned out to be 0.000396 s⁻¹ and the kon was 262000 M⁻¹ s⁻¹.

On to B3, for which the Ka is 1.31e+09 M⁻¹, the Kd was determined as 0.764 nM, the koff is 0.00031 s⁻¹ and the kon worked out at 405000 M⁻¹ s⁻¹.

On to B4, for which the Ka amounted to 2.11e+09 M⁻¹, the Kd was found to be 0.473 nM, the koff is 0.000348 s⁻¹ and the kon amounted to 735000 M⁻¹ s⁻¹.

Regarding B5, the Ka was 1.11e+09 M⁻¹, the Kd was 0.897 nM, the koff was 0.000429 s⁻¹ and the kon is 479000 M⁻¹ s⁻¹.

Turning to B6, the Ka turned out to be 4.85e+08 M⁻¹, the Kd stood at 2.06 nM, the off-rate (koff) stood at 0.000345 s⁻¹ and the kon was 167000 M⁻¹ s⁻¹.

As for B7, the Ka came to 1.53e+09 M⁻¹, the Kd came out at 0.653 nM, the koff is 0.000359 s⁻¹ and the kon turned out to be 550000 M⁻¹ s⁻¹.

Turning to B8, the Ka came out at 2.16e+09 M⁻¹, the Kd amounted to 0.463 nM, the koff was 0.000573 s⁻¹ and the kon is 1.24e+06 M⁻¹ s⁻¹.

For B9, the Ka is 3.12e+09 M⁻¹, the Kd amounted to 0.321 nM, the koff came out at 0.000364 s⁻¹ and the kon is 1.13e+06 M⁻¹ s⁻¹.

With B10, the Ka was 6.99e+08 M⁻¹, the Kd is 1.43 nM, the koff came out at 0.000358 s⁻¹ and the kon turned out to be 251000 M⁻¹ s⁻¹.

In the case of B11, the Ka came out at 7.58e+08 M⁻¹, the Kd is 1.32 nM, the koff came to 0.000301 s⁻¹ and the kon was 228000 M⁻¹ s⁻¹.

On to B12, for which the Ka is 2.89e+09 M⁻¹, the Kd worked out at 0.346 nM, the koff was 0.000391 s⁻¹ and the kon stood at 1.13e+06 M⁻¹ s⁻¹.

Consider B13, for which the Ka amounted to 7.58e+08 M⁻¹, the dissociation constant Kd was 1.32 nM, the koff is 0.000397 s⁻¹ and the kon was determined as 302000 M⁻¹ s⁻¹.

For the molecule B14, the Ka is 1.32e+09 M⁻¹, the Kd amounted to 0.759 nM, the koff came to 0.000312 s⁻¹ and the association rate constant (kon) turned out to be 412000 M⁻¹ s⁻¹.

Turning to B15, the Ka is 1.17e+09 M⁻¹, the Kd was found to be 0.857 nM, the koff stood at 0.00032 s⁻¹ and the kon is 374000 M⁻¹ s⁻¹.

For B16, the Ka worked out at 1.34e+09 M⁻¹, the Kd came to 0.744 nM, the koff amounted to 0.000372 s⁻¹ and the kon was 500000 M⁻¹ s⁻¹.

For B17, the Ka stood at 5.41e+08 M⁻¹, the Kd was determined as 1.85 nM, the koff was determined as 0.000471 s⁻¹ and the kon came out at 254000 M⁻¹ s⁻¹.

B18: the Ka turned out to be 9.62e+08 M⁻¹, the Kd was found to be 1.04 nM, the koff was determined as 0.000283 s⁻¹ and the kon turned out to be 271000 M⁻¹ s⁻¹.

For B19, the Ka stood at 8e+08 M⁻¹, the Kd is 1.25 nM, the koff is 0.000312 s⁻¹ and the kon stood at 250000 M⁻¹ s⁻¹.

In the case of B20, the Ka worked out at 1.52e+09 M⁻¹, the Kd was found to be 0.658 nM, the koff was found to be 0.000262 s⁻¹ and the kon came out at 398000 M⁻¹ s⁻¹.

B21: the Ka came out at 1.05e+09 M⁻¹, the Kd was determined as 0.955 nM, the koff amounted to 0.000329 s⁻¹ and the kon was 345000 M⁻¹ s⁻¹.

B22: the Ka came out at 1.63e+09 M⁻¹, the Kd amounted to 0.612 nM, the koff came out at 0.000371 s⁻¹ and the kon was 606000 M⁻¹ s⁻¹.
